Test results as given in PMC5994540.

Test: surface/total immunofluorescence, COS-7, with GluN1-4a
Conditions: glycan lost; control: wild-type GluN1/GluN3A

Protein | localisation_or_trafficking
GluN3A subunit: GluN3A-2/4N→Q (protein) parent chain: MRRLSLWWLLSRVCLLLPPPCALVLAGVPSSSSHPQPCQILKRIGHAVRVGAVHLQPWTTAPRAASRAQEGGRAGAQRDDPESGTWRPPAPSQGARWLGSALHGRGPPGSRKLGEGAGAETLWPRDALLFAVENLNRVEGLLPYNLSLEVVMAIEAGLGDLPLMPFSSPSSPWSSDPFSFLQSVCHTVVVQGVSALLAFPQSQGEMMELDLVSSVLHIPVLSIVRHEFPRESQNPLHLQLSLENSLSSDADVTVSILTMNNWYNFSLLLCQEDWNITDFLLLTENNSKFHLESVINITANLSSTKDLLSFLQVQMDNIRNSTPTMVMFGCDMDSIRQIFEMSTQFGLSPPELHWVLGDSQNVEELRTEGLPLGLIAHGKTTQSVFEYYVQDAMELVARAVATATMIQPELALLPSTMNCMDVKTTNLTSGQYLSRFLANTTFRGLSGSIKVKGSTIISSENNFFIWNLQHDPMGKPMWTRLGSWQGGRIVMDSGIWPEQAQRHKTHFQHPNKLHLRVVTLIEHPFVFTREVDDEGLCPAGQLCLDPMTNDSSMLDRLFSSLHSSNDTVPIKFKKCCYGYCIDLLEQLAEDMNFDFDLYIVGDGKYGAWKNGHWTGLVGDLLSGTANMAVTSFSINTARSQVIDFTSPFFSTSLGILVRTRDTAAPIGAFMWPLHWTMWLGIFVALHITAIFLTLYEWKSPFGMTPKGRNRNKVFSFSSALNVCYALLFGRTAAIKPPKCWTGRFLMNLWAIFCMFCLSTYTANLAAVMVGEKIYEELSGIHDPKLHHPSQGFRFGTVRESSAEDYVRQSFPEMHEYMRRYNVPATPDGVQYLKNDPEKLDAFIMDKALLDYEVSIDADCKLLTVGKPFAIEGYGIGLPPNSPLTSNISELISQYKSHGFMDVLHDKWYKVVPCGKRSFAVTETLQMGIKHFSGLFVLLCIGFGLSILTTIGEHIVHRLLLPRIKNKSKLQYWLHTSQRFHRALNTSFVEEKQPRSKTKRVEKSRWRRWTCKTEGDSELSLFPRSNLGPQQLMVWNTSNLSHDNQRKYIFNDEEGQNQLGTQAHQDIPLPQRRRELPASLTTNGKADSLNVTRSSVIQELSELEKQIQVIRQELQLAVSRKTELEEYQKTNRTCES | no change
GluN3A subunit: N264Q (protein) parent chain: MRRLSLWWLLSRVCLLLPPPCALVLAGVPSSSSHPQPCQILKRIGHAVRVGAVHLQPWTTAPRAASRAQEGGRAGAQRDDPESGTWRPPAPSQGARWLGSALHGRGPPGSRKLGEGAGAETLWPRDALLFAVENLNRVEGLLPYNLSLEVVMAIEAGLGDLPLMPFSSPSSPWSSDPFSFLQSVCHTVVVQGVSALLAFPQSQGEMMELDLVSSVLHIPVLSIVRHEFPRESQNPLHLQLSLENSLSSDADVTVSILTMNNWYNFSLLLCQEDWNITDFLLLTENNSKFHLESVINITANLSSTKDLLSFLQVQMDNIRNSTPTMVMFGCDMDSIRQIFEMSTQFGLSPPELHWVLGDSQNVEELRTEGLPLGLIAHGKTTQSVFEYYVQDAMELVARAVATATMIQPELALLPSTMNCMDVKTTNLTSGQYLSRFLANTTFRGLSGSIKVKGSTIISSENNFFIWNLQHDPMGKPMWTRLGSWQGGRIVMDSGIWPEQAQRHKTHFQHPNKLHLRVVTLIEHPFVFTREVDDEGLCPAGQLCLDPMTNDSSMLDRLFSSLHSSNDTVPIKFKKCCYGYCIDLLEQLAEDMNFDFDLYIVGDGKYGAWKNGHWTGLVGDLLSGTANMAVTSFSINTARSQVIDFTSPFFSTSLGILVRTRDTAAPIGAFMWPLHWTMWLGIFVALHITAIFLTLYEWKSPFGMTPKGRNRNKVFSFSSALNVCYALLFGRTAAIKPPKCWTGRFLMNLWAIFCMFCLSTYTANLAAVMVGEKIYEELSGIHDPKLHHPSQGFRFGTVRESSAEDYVRQSFPEMHEYMRRYNVPATPDGVQYLKNDPEKLDAFIMDKALLDYEVSIDADCKLLTVGKPFAIEGYGIGLPPNSPLTSNISELISQYKSHGFMDVLHDKWYKVVPCGKRSFAVTETLQMGIKHFSGLFVLLCIGFGLSILTTIGEHIVHRLLLPRIKNKSKLQYWLHTSQRFHRALNTSFVEEKQPRSKTKRVEKSRWRRWTCKTEGDSELSLFPRSNLGPQQLMVWNTSNLSHDNQRKYIFNDEEGQNQLGTQAHQDIPLPQRRRELPASLTTNGKADSLNVTRSSVIQELSELEKQIQVIRQELQLAVSRKTELEEYQKTNRTCES | no change
GluN3A subunit: GluN3A-4/4N→Q (protein) parent chain: MRRLSLWWLLSRVCLLLPPPCALVLAGVPSSSSHPQPCQILKRIGHAVRVGAVHLQPWTTAPRAASRAQEGGRAGAQRDDPESGTWRPPAPSQGARWLGSALHGRGPPGSRKLGEGAGAETLWPRDALLFAVENLNRVEGLLPYNLSLEVVMAIEAGLGDLPLMPFSSPSSPWSSDPFSFLQSVCHTVVVQGVSALLAFPQSQGEMMELDLVSSVLHIPVLSIVRHEFPRESQNPLHLQLSLENSLSSDADVTVSILTMNNWYNFSLLLCQEDWNITDFLLLTENNSKFHLESVINITANLSSTKDLLSFLQVQMDNIRNSTPTMVMFGCDMDSIRQIFEMSTQFGLSPPELHWVLGDSQNVEELRTEGLPLGLIAHGKTTQSVFEYYVQDAMELVARAVATATMIQPELALLPSTMNCMDVKTTNLTSGQYLSRFLANTTFRGLSGSIKVKGSTIISSENNFFIWNLQHDPMGKPMWTRLGSWQGGRIVMDSGIWPEQAQRHKTHFQHPNKLHLRVVTLIEHPFVFTREVDDEGLCPAGQLCLDPMTNDSSMLDRLFSSLHSSNDTVPIKFKKCCYGYCIDLLEQLAEDMNFDFDLYIVGDGKYGAWKNGHWTGLVGDLLSGTANMAVTSFSINTARSQVIDFTSPFFSTSLGILVRTRDTAAPIGAFMWPLHWTMWLGIFVALHITAIFLTLYEWKSPFGMTPKGRNRNKVFSFSSALNVCYALLFGRTAAIKPPKCWTGRFLMNLWAIFCMFCLSTYTANLAAVMVGEKIYEELSGIHDPKLHHPSQGFRFGTVRESSAEDYVRQSFPEMHEYMRRYNVPATPDGVQYLKNDPEKLDAFIMDKALLDYEVSIDADCKLLTVGKPFAIEGYGIGLPPNSPLTSNISELISQYKSHGFMDVLHDKWYKVVPCGKRSFAVTETLQMGIKHFSGLFVLLCIGFGLSILTTIGEHIVHRLLLPRIKNKSKLQYWLHTSQRFHRALNTSFVEEKQPRSKTKRVEKSRWRRWTCKTEGDSELSLFPRSNLGPQQLMVWNTSNLSHDNQRKYIFNDEEGQNQLGTQAHQDIPLPQRRRELPASLTTNGKADSLNVTRSSVIQELSELEKQIQVIRQELQLAVSRKTELEEYQKTNRTCES | no change
GluN3A subunit: GluN3A-3/4N→Q (protein) parent chain: MRRLSLWWLLSRVCLLLPPPCALVLAGVPSSSSHPQPCQILKRIGHAVRVGAVHLQPWTTAPRAASRAQEGGRAGAQRDDPESGTWRPPAPSQGARWLGSALHGRGPPGSRKLGEGAGAETLWPRDALLFAVENLNRVEGLLPYNLSLEVVMAIEAGLGDLPLMPFSSPSSPWSSDPFSFLQSVCHTVVVQGVSALLAFPQSQGEMMELDLVSSVLHIPVLSIVRHEFPRESQNPLHLQLSLENSLSSDADVTVSILTMNNWYNFSLLLCQEDWNITDFLLLTENNSKFHLESVINITANLSSTKDLLSFLQVQMDNIRNSTPTMVMFGCDMDSIRQIFEMSTQFGLSPPELHWVLGDSQNVEELRTEGLPLGLIAHGKTTQSVFEYYVQDAMELVARAVATATMIQPELALLPSTMNCMDVKTTNLTSGQYLSRFLANTTFRGLSGSIKVKGSTIISSENNFFIWNLQHDPMGKPMWTRLGSWQGGRIVMDSGIWPEQAQRHKTHFQHPNKLHLRVVTLIEHPFVFTREVDDEGLCPAGQLCLDPMTNDSSMLDRLFSSLHSSNDTVPIKFKKCCYGYCIDLLEQLAEDMNFDFDLYIVGDGKYGAWKNGHWTGLVGDLLSGTANMAVTSFSINTARSQVIDFTSPFFSTSLGILVRTRDTAAPIGAFMWPLHWTMWLGIFVALHITAIFLTLYEWKSPFGMTPKGRNRNKVFSFSSALNVCYALLFGRTAAIKPPKCWTGRFLMNLWAIFCMFCLSTYTANLAAVMVGEKIYEELSGIHDPKLHHPSQGFRFGTVRESSAEDYVRQSFPEMHEYMRRYNVPATPDGVQYLKNDPEKLDAFIMDKALLDYEVSIDADCKLLTVGKPFAIEGYGIGLPPNSPLTSNISELISQYKSHGFMDVLHDKWYKVVPCGKRSFAVTETLQMGIKHFSGLFVLLCIGFGLSILTTIGEHIVHRLLLPRIKNKSKLQYWLHTSQRFHRALNTSFVEEKQPRSKTKRVEKSRWRRWTCKTEGDSELSLFPRSNLGPQQLMVWNTSNLSHDNQRKYIFNDEEGQNQLGTQAHQDIPLPQRRRELPASLTTNGKADSLNVTRSSVIQELSELEKQIQVIRQELQLAVSRKTELEEYQKTNRTCES | no change
GluN3A subunit: N145Q (protein) parent chain: MRRLSLWWLLSRVCLLLPPPCALVLAGVPSSSSHPQPCQILKRIGHAVRVGAVHLQPWTTAPRAASRAQEGGRAGAQRDDPESGTWRPPAPSQGARWLGSALHGRGPPGSRKLGEGAGAETLWPRDALLFAVENLNRVEGLLPYNLSLEVVMAIEAGLGDLPLMPFSSPSSPWSSDPFSFLQSVCHTVVVQGVSALLAFPQSQGEMMELDLVSSVLHIPVLSIVRHEFPRESQNPLHLQLSLENSLSSDADVTVSILTMNNWYNFSLLLCQEDWNITDFLLLTENNSKFHLESVINITANLSSTKDLLSFLQVQMDNIRNSTPTMVMFGCDMDSIRQIFEMSTQFGLSPPELHWVLGDSQNVEELRTEGLPLGLIAHGKTTQSVFEYYVQDAMELVARAVATATMIQPELALLPSTMNCMDVKTTNLTSGQYLSRFLANTTFRGLSGSIKVKGSTIISSENNFFIWNLQHDPMGKPMWTRLGSWQGGRIVMDSGIWPEQAQRHKTHFQHPNKLHLRVVTLIEHPFVFTREVDDEGLCPAGQLCLDPMTNDSSMLDRLFSSLHSSNDTVPIKFKKCCYGYCIDLLEQLAEDMNFDFDLYIVGDGKYGAWKNGHWTGLVGDLLSGTANMAVTSFSINTARSQVIDFTSPFFSTSLGILVRTRDTAAPIGAFMWPLHWTMWLGIFVALHITAIFLTLYEWKSPFGMTPKGRNRNKVFSFSSALNVCYALLFGRTAAIKPPKCWTGRFLMNLWAIFCMFCLSTYTANLAAVMVGEKIYEELSGIHDPKLHHPSQGFRFGTVRESSAEDYVRQSFPEMHEYMRRYNVPATPDGVQYLKNDPEKLDAFIMDKALLDYEVSIDADCKLLTVGKPFAIEGYGIGLPPNSPLTSNISELISQYKSHGFMDVLHDKWYKVVPCGKRSFAVTETLQMGIKHFSGLFVLLCIGFGLSILTTIGEHIVHRLLLPRIKNKSKLQYWLHTSQRFHRALNTSFVEEKQPRSKTKRVEKSRWRRWTCKTEGDSELSLFPRSNLGPQQLMVWNTSNLSHDNQRKYIFNDEEGQNQLGTQAHQDIPLPQRRRELPASLTTNGKADSLNVTRSSVIQELSELEKQIQVIRQELQLAVSRKTELEEYQKTNRTCES | no change
